Test results published in the nanobody polyreactivity screen of Harvey et al. (2022).

assay: yeast display, Sf9 membrane polyspecificity reagent, FACS + sequencing; frameworks hold sequencing errors
Summary of the method: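 Sorting gates, low and high (top ~1%), were placed on anti-HA fluorescence to track expression and on streptavidin fluorescence to track reagent binding. A clone's polyreactivity label is taken from the gate it came out of. The reagent was 10% biotinylated, detergent-solubilized Sf9 membrane, applied for 1 hour at 4 °C to galactose-induced yeast display cells.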

Row | Sequence | polyreactivity (PSR sort gate)
1 | QDQLVESGGGLVQAGGSLRLSCAASGSIFEINAMGWYRQSPGKERELVAAITGSGGSTHYADSVKGRFTISRDNAKNTVYLQMNSLKPEDTAVYYCAAVPRYQYGYWGQGTQVTVSS | low polyreactivity
2 | QDQLVESGGGLVQAGGSLRLSCAASGSIFGRNTMGWYRQAPGKERELVAAISSSGGSTRYADSVKGRFTISRDNAKNTVYLQMNSLKPEDTAVYYCNAKRYGGRQASYNLGDYWGQGTEVTVSS | high polyreactivity
3 | QDQLVESGGGLVQAGGSLRLSCAASGSIFGVYAMGWYRQAPGKEGELVAAISWTDGTTYYADSVKGRFTISRDNAKNTVYLQMNSLKQEDTAVYYCAVTYPRVAKVMYYWGQGTQVNVSS | high polyreactivity
4 | QDQLVESGGGLVQAGGSLRLSCAASGSIFGVYAMGWYRQAPGKERELVAVISFNSGSTNYADSVKGRFTISRDNAKNTVYLQMNSLKPEDTAVYYCNSDAWHETQVSGYSWGQGTQVTVSS | low polyreactivity
5 | QDQLVESGGGLVQAGGSLRLSCAASGSIFKYNMGWYRQAPGKERELVAAISRGGSTYYADSVKGRFTISRDNAKNTVYLQMTRLKPEDTAVYYCNAATSRRFSGMNYCGQGTQVTVSS | high polyreactivity
6 | QDQLVESGGGLVQAGGSLRLSCAASGSIFPHNAKGSYRQAPGKERELVASITSRGGITYYADSVKGRFTISRDNAKNTVYLQMNSLKPEDTAVYYCAADTYTDGYDYWGQGTQVTVSS | low polyreactivity
7 | QDQLVESGGGLVQAGGSLRLSCAASGSIFRVYVMGWYRQAPGKERELVAAITSSDGSTYYADSVKGRFTISRDNAKNTVYLQMNSLKPEDTAVYYCNAEFYSPRVVVPRYWYPGDYWGQGTQVTVSS | low polyreactivity
8 | QDQLVESGGGLVQAGGSLRLSCAASGSIFSYYAMGWYRQAAGKERELVAAINDGGGSTYYADSVKGRFTISRDNAKNTVYLQMNSLKPEDTAVYYCAAEWSWGPYRYDYWGQGTQVTVSS | high polyreactivity
9 | QDQLVESGGGLVQAGGSLRLSCAASGSIFWVYVMGWYSQAPGKERELVAAITNGGSTDYADSVKGRFTISRDNAKNTVYLQLNSLKPEDTAVYYCAKRSPIWGRILITYDYWGQGTQVTVSS | low polyreactivity
10 | QDQLVESGGGLVQAGGSLRLSCAASGSIIDYYDMGWYRQAPGKEREFVAAINWSGGNTHYADSVKGRFTISRDNAKNTVYLQMNSLKPEDTAVYYCAVDVKIGTDFIGVVIPGDYWGQGTQVTVSS | low polyreactivity
11 | QDQLVESGGGLVQAGGSLRLSCAASGSIIGWYAMGWYRQARGKERELVAAITFSSVSTYYADSVKGRFTISRDNAKNTVYLQMNSLKPEDTAVYYCAAVVYYTFDYCGQGTQVTVSS | low polyreactivity
12 | QDQLVESGGGLVQAGGSLRLSCAASGSILAYNAMGWYRQAPGKERQLVAAIRLSGGSTYYADSVKGRFTISRDNAKNTVYLQMNSLKPEDTAVYYCARRYYRYDTRKYNYWGQGTQVSVSS | high polyreactivity
13 | QDQLVESGGGLVQAGGSLRLSCAASGSILRQYAMGWYRQAPGKERELVATITGDGSTNYADSVKGRFTISRDNAKNTVYLQMHSLKPEDTAVYYCAVIGYHYSAISPPSQTRQGYDYWGQGTQVTVSS | low polyreactivity
14 | QDQLVESGGGLVQAGGSLRLSCAASGSISVANAMGWYRQAPGKERELVAAISWRSDSTYYADSVKGRFTISRDNAKNTVYLQMNSLKPEDTAVYYCAASQYPLIWYDYWGQGTQVTVSS | low polyreactivity
15 | QDQLVESGGGLVQAGGSLRLSCAASGSNFVPYAMGWYRQSPGKERELVAAISGSGTRTYYAYSVKGRFTISRDNSKNTVYLQMNSLKPEDTAVYYCDADWRRSVGYTMGYWGQGTQVTVSS | high polyreactivity
16 | QDQLVESGGGLVQAGGSLRLSCAASGSNYKYYPMGWYRTAPGKERELVAAITWGGGSTYYADSVKGRFTISRDNAKNTFYLQLNSLKPEDTAVYYCAASLFPYQYDAYFSHRKAFYYWGQGTQVTVSS | high polyreactivity
17 | QDQLVESGGGLVQAGGSLRLSCAASGSRLGGYAMGWYRQAPGKERELVAAITWNGGRTYYADSVKWRFTISRDNAKNTVYLQMNILKPEDTAVYYCAADYSKGYEYWGQVTQVTVSS | high polyreactivity
18 | QDQLVESGGGLVQAGGSLRLSCAASGSTFAFKTMGWYRQAPGKERELVAGISSNGGRTYYADSVKGRFTISRDNAKNTVYLQMNSLKPEDTAVYYCNALRRYVSVRPTKSDYWGQGTQVTVSS | high polyreactivity
19 | QDQLVESGGGLVQAGGSLRLSCAASGSTFEVYAMGWYRQAPGKERELVAGITRGGSTNYADSVKGRFTISRDNAKNTVYLQMNSLKPEDTAVYYCAAPKYLGTDEYDYWGQGTQVTVSS | low polyreactivity
20 | QDQLVESGGGLVQAGGSLRLSCAASGSTFGYYAMGWYRQAPGKERELVAAITSGASTNYADSVKGRFTISRDNAKNTVYLQMNSLKPEDTAVYYCAAGFQTRTPLNEFDYWGQGTQVTVSS | low polyreactivity
21 | QDQLVESGGGLVQAGGSLRLSCAASGSTFKYYGMGWYRQAPGKERELVAAITSGGSTYDADSVKGRFTISRDNAKNTVYLQMNSLKPEDTAVYYCNTTAYSPTPYDYWGQGTQVTVSS | low polyreactivity
22 | QDQLVESGGGLVQAGGSLRLSCAASGSTFPFYAMGWDRQAPGKERELVAAITSGGSTYADSVKGRFTISRDNAKNTVYLQMNSLKPEDTAVYYCAAVGWFADCLFSDIKGYSWGQGTPVTVSS | low polyreactivity

Row | Sequence | polyreactivity (PSR sort gate)
23 | QDQLVESGGGLVQAGGSLRLSCAASGSTFQYYTMGWYRQAPGKERELVAAISGDGGNTYYADSVKGRFTISRDNAKNTVYLQMNRLKPEDTAVYYCNADGLILYDYWGQGTQVTVSW | low polyreactivity
24 | QDQLVESGGGLVQAGGSLRLSCAASGSTFRHYAMGWYRQAPGQESELVAAISSRGGRTYYADSVKGRFTISRDNAKNTVYFQMNSLKPEDTAVYYCAADRFRLYVGGWWYDYWGLGTQVTVSS | high polyreactivity
25 | QDQLVESGGGLVQAGGSLRLSCAASGSTFSFYAMGWTRQAPGKERELVAAISRSGGSTFYADSVKGRFTISRDNAKNTVYLQMNSLKPEDSAVYYCAAYGGLQSRYYYWGQGTQVTVSS | high polyreactivity
26 | QDQLVESGGGLVQAGGSLRLSCAASGSTFSRYAMGWYRQAPGKERELVAAITSSGGSTYYADSVKGRFTISRDNAKNTVYLQMNSLKPEDTAVYYCAASYQVRYDYWGQGTQVTVSS | high polyreactivity
27 | QDQLVESGGGLVQAGGSLRLSCAASGSTFTFYVMGWYRQAPGKERELVAAITASGGSTYYADSVKGRFTISRDNAKNTVYLQMNSLKPEDTAVYYCAARPTYYYSRTYDYWGQGTQVTVSS | low polyreactivity
28 | QDQLVESGGGLVQAGGSLRLSCAASGSTFVYYAMGWYRQAPGKERELVAAISRTGNTYYADSVKGRFTISRDNAKNTVYLQMNSLKPEDSAVYYCAKDYWRAYGSYEYWGQGTQVTVSS | low polyreactivity
29 | QDQLVESGGGLVQAGGSLRLSCAASGSTFYFNAMGWYRPAPGKEREFVAVIDGSGGFTYYADSVKGRFTISRDNAKNTVYLQLNILKPEDTAVYYCNADLVYNTFFYSGGDEYDYWGQGTQVNVSS | high polyreactivity
30 | QDQLVESGGGLVQAGGSLRLSCAASGSTIWGNAMGWYRQAPGKERELVAAITSTGSTNYADSVKARFTISRDNAKNTVYLQMNSLKPEVTAVYYCATAYYHTYWPTRRYYYWGQGTQVTVSS | high polyreactivity
31 | QDQLVESGGGLVQAGGSLRLSCAASGTFGGYAMGCYRQAPRKERELVARIRRNGGSTYYADSVKGRFTISRDNAKNTVYLQMNCLKPEDTAVYYCATYRYVYGTASYGYWGQGTQVTVSS | high polyreactivity
32 | QDQLVESGGGLVQAGGSLRLSCAASGYTFDYNAMGWYRQAPGKEREFVAAIDWSGGNTYYADSVKGRFTISRDNAKNTVYLQMNSLKPEDTAVYYCNTVTEAVTRRYDYWGQGTQVTVSS | low polyreactivity
33 | QDQLVESGGGLVQAGGSLRLSCAASGYTFFFYVMGWSRQAAGKERELVAAITFSVGSTYYADSVKRRFTISRDNAKNTVYLQMNSLKPEDTAVYYCAARGALYSHSYGSARYYYWGQGTQVTVSS | high polyreactivity
34 | QDQLVESGGGLVQAGGSLRLSCAATGRIFKLYAMGWYRQAPGKERELVAAISSSGTRTYYADSVKGRFTISRDNAKNTVYLHMNSMKPEDTAVYYCAKRWPRKGNYPGSDYWGQGTQVTVSS | high polyreactivity
35 | QDQLVESGGGLVQAGGSLRLSCAATGRIFVYYAMGWSRQAPGKERELVATISSGGSTYYADSVKGRFTISRDNAKNTVYLQMNSLKPDDTAVYYCAADNVNLYLAYYYKGDYWGQGTQVTVSS | low polyreactivity
36 | QDQLVESGGGLVQAGGSLRLSCAATGRTFYFYTMGWYRQAPGKERELVATAITSGGSTNYADSVKGRFTISRDNAKNTVYLQMNSLKPEDTAVYYCAATLYWGWVFSYTSFDYWGQGTQVTVSS | low polyreactivity
37 | QDQLVESGGGLVQAGGSLRLSCAAYGRTLRRYAMGWYRQAPGKERELVAAISRSGSSTYADSVKGRFTISRDNAKNTVYLQMNSLKPEDTAVYYCNAYQPRYGYWGQGTQVTVSS | high polyreactivity
38 | QDQLVESGGGLVQAGGSLRLSCAAYGSTFPVYTMGWYRQAPRKEREFVAAITGSGGRTYYADSVKGRFTISRDNAKNTVFLQMNSLKPEDTAVYYCNAYPKGRYAAAFPGMDYWGQGTQVTVSS | high polyreactivity
39 | QDQLVESGGGLVQAGGSLRLSCAAYGYTFDDNAMGWFRQAPGKERELVAAINWDGASTYADSVKGRFTISRDNAKNTVYLQMNSLKPEDTAVYYCTASGKDIFNYVYQGYDYCGQGTQVTVSS | low polyreactivity
40 | QDQLVESGGGLVQAGGSLRLSCADYGINFYSYAMGWYRQAPGKEREFVAAISTGSSTNYADSVKGRFTISRDNAKNNVYLQMISLKPEDTAVYYCAKSTAVKPYAYRESGFIYDYWGQGTQLTVSS | low polyreactivity
41 | QDQLVESGGGLVQAGGSLRLSCAPSGRIFTTYGMGWYSQAPGKERELVAAISRSGGSTYYADSVKGRFTISRDNAKNTVYLQMNSLKPEDTAVYYCAAVPTSNSFRSSFYYWGQGTQVTVSS | high polyreactivity
42 | QDQLVESGGGLVQAGGSLRLSCDASGSTFLVYAMGWYRQAPGKERELVAAITQIDGSTYYADSVKGRFTISRDNAKNTVYLQMNSLKPEDTAVYYCAARYFWTYEYDYWGHGTQVTVSS | low polyreactivity
43 | QDQLVESGGGLVQAGGSLRLSCGASGGIFWKYAMGWYRQAPGKERELVAAISRSGSSTYYADSVKGRFTISRDNAKNTVYLQMNSLKPEDTAVYYCAAQPYDSNYGNSGYWGQGTQVTVSS | high polyreactivity
